EC50 and EC50 relative to wild type rFluA-20 data for five molecules are collected here from patent US20220387578A1.

In assay [1] the target is H12 HA A/duck/Alberta/60/1976, recombinant (influenza A virus).
The target of assay [2] is H5 HA A/Indonesia/05/2005 (H5N1), recombinant (influenza A virus).
Assay [3] deals with H2 HA A/Singapore/1/1957, recombinant soluble trimer (influenza A virus).
Assay [4] addresses H15 HA A/shearwater/Western Australia/2576/1979, recombinant (influenza A virus).
Assay [5] deals with H9 HA A/Hong Kong/1073/99, recombinant (influenza A virus).
Assay [6] deals with H14 HA A/mallard duck/Astrakhan/263/1982, recombinant (influenza A virus).
For assay [7], the target named is H7 HA A/Shanghai/2/2013 (H7N9), recombinant uncleaved trimer (influenza A virus).
The target in assay [8] is H3 HA A/Hong Kong/1/1968 (H3N2), recombinant soluble trimer (influenza A virus), Q91MA7. To be noted: remark: other sources report otherwise.

B1: rFluA-20 heavy chain mutant Y34A (antibody, V domains shown)
VH: QVQLQESGPGLVKPSETLSLTCSVSGVSVTSDIAYWTWIRQPPGKGLEWIGYIFYNGDTNYNPSLKSRVTMSIDTSKNEFSLRLTSVTAADTAVYFCARGTEDLGYCSSGSCPNHWGQGTLVTVSS
VL: DIQMTQSPSSLSASIGDRVTITCRPSQNIRSFLNWFQHKPGKAPKLLIYAASNLQSGVPSRFSGSGSGTEFTLTIRSLQPEDFATYYCQQSYNTPPTFGQGTKVEIK
For orientation: EC50 means the midpoint of the concentration-response curve. In the case of B1, the EC50 worked out at 0.05 µg/mL in assay [1]; 0.11 µg/mL in assay [3]; 0.1 µg/mL in assay [4]; 0.21 µg/mL in assay [5]; 0.54 µg/mL in assay [6]; 0.44 µg/mL in assay [7]. In assay [2], the EC50 relative to wild type rFluA-20 was more than 100 fold.

B2: rFluA-20 heavy chain mutant T96A (antibody, V domains shown)
VH: QVQLQESGPGLVKPSETLSLTCSVSGVSVTSDIYYWTWIRQPPGKGLEWIGYIFYNGDTNYNPSLKSRVTMSIDTSKNEFSLRLTSVTAADTAVYFCARGAEDLGYCSSGSCPNHWGQGTLVTVSS
VL: DIQMTQSPSSLSASIGDRVTITCRPSQNIRSFLNWFQHKPGKAPKLLIYAASNLQSGVPSRFSGSGSGTEFTLTIRSLQPEDFATYYCQQSYNTPPTFGQGTKVEIK
As for B2, the half-maximal effective concentration (EC50) worked out at 0.04 µg/mL in assay [1]; 0.11 µg/mL in assay [2]; 0.07 µg/mL in assay [3]; 0.07 µg/mL in assay [4]; 0.1 µg/mL in assay [5]; 0.23 µg/mL in assay [6]. Also, the concentration giving a half-maximal response (EC50) in assay [7] amounted to 0.37 µg/mL.

B3: rFluA-20 heavy chain mutant Y100aA (antibody, V domains shown)
VH: QVQLQESGPGLVKPSETLSLTCSVSGVSVTSDIYYWTWIRQPPGKGLEWIGYIFYNGDTNYNPSLKSRVTMSIDTSKNEFSLRLTSVTAADTAVYFCARGTEDLGACSSGSCPNHWGQGTLVTVSS
VL: DIQMTQSPSSLSASIGDRVTITCRPSQNIRSFLNWFQHKPGKAPKLLIYAASNLQSGVPSRFSGSGSGTEFTLTIRSLQPEDFATYYCQQSYNTPPTFGQGTKVEIK
On to B3, for which the EC50 relative to wild type rFluA-20 in assay [1], in assay [2], in assay [3], in assay [4], in assay [5] and in assay [6] was more than 100 fold in each case. The EC50 relative to wild type rFluA-20 in assay [7] was more than 100 fold.

B4: rFluA-20 heavy chain mutant E97A (antibody, V domains shown)
VH: QVQLQESGPGLVKPSETLSLTCSVSGVSVTSDIYYWTWIRQPPGKGLEWIGYIFYNGDTNYNPSLKSRVTMSIDTSKNEFSLRLTSVTAADTAVYFCARGTADLGYCSSGSCPNHWGQGTLVTVSS
VL: DIQMTQSPSSLSASIGDRVTITCRPSQNIRSFLNWFQHKPGKAPKLLIYAASNLQSGVPSRFSGSGSGTEFTLTIRSLQPEDFATYYCQQSYNTPPTFGQGTKVEIK
Consider B4, for which the EC50 in assay [1] is 0.06 µg/mL; in assay [3], 0.13 µg/mL; in assay [4], 0.12 µg/mL; in assay [5] it was 0.36 µg/mL; in assay [6], 0.64 µg/mL; in assay [7], 1 µg/mL. The EC50 relative to wild type rFluA-20 in assay [2] is more than 100 fold.

B5: rFluA-20 light chain mutant Q55A (antibody, V domains shown)
VH: QVQLQESGPGLVKPSETLSLTCSVSGVSVTSDIYYWTWIRQPPGKGLEWIGYIFYNGDTNYNPSLKSRVTMSIDTSKNEFSLRLTSVTAADTAVYFCARGTEDLGYCSSGSCPNHWGQGTLVTVSS
VL: DIQMTQSPSSLSASIGDRVTITCRPSQNIRSFLNWFQHKPGKAPKLLIYAASNLASGVPSRFSGSGSGTEFTLTIRSLQPEDFATYYCQQSYNTPPTFGQGTKVEIK
With B5, in assay [8], the EC50 was 0.08 µg/mL.
